Data reported in the supplement of paper PMC7877785.
± gives the uncertainty stated by the source.

Experiment: self-splicing fitness, log relative to wild type (ln ratio); higher = more splicing; Tetrahymena group I intron in knt gene, E. coli kanamycin selection, DiMSum; sequences stand for … in CUCUCU…GGAGGGAAAAGUUAUCAGGCAUGCACCUGGUAGCUAGUCUUUAAACCAAUAGAUUGCAUCGGUUUAAAAGGCAAGACCGUCAAAUUGCGGGAAAGGGGUCAACAGCCGUUCAGUACCAAGUCUCAGGGGAAACUUUGAGAUGGCCUUGCAAAGGGUAUGGUAAUAAGCUGACGGACAUGGUCCUAACCACGCAGCCAAGUCCUAAGUCAACAGAUCUUCUGUUGAUAUGGAUGCAGUUCACAGACUAAAUGUCGGUCGGGGAAGAUGUAUUCUUCUCAUAAGAUAUAGUCGGACCUCUCCUUAAUGGGAGCUAGCGGAUGAAGUGAUGCAACACUGGAGCCGCUGGGAACUAAUUUGUAUGCGAAAGUAUAUUGAUUAGUUUUGGAGUACUCGUGGUCG
Summary of the method: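 DiMSum derived fitness as the error-weighted combination of fold changes across replicates, kanamycin versus no kanamycin, normalised to wild type. E. coli BL21(DE3) held the library, which randomised all eight P1ex-region intron nucleotides within the knt kanamycin-resistance gene on pET-22b(+). Six replicate transformations grew overnight at 37°C or 30°C on LB agar with or without 25 μg/mL kanamycin, also containing 100 μg/mL carbenicillin, 50 μM IPTG and 0.2% rhamnose, and pooled colonies were amplicon-sequenced on an Illumina HiSeq 2500.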

Row | Sequence | self-splicing fitness (ln) (30 °C) | self-splicing fitness (ln) (37 °C)
1 | GCCAAGCAAUAUUACGCACU | -0.915 ± 0.077 | -0.196 ± 0.097
2 | GCCAAGCAAUAUUACGCAUU | -1.35 ± 0.072 | -0.715 ± 0.081
3 | GCCAAGCAAUAUUACGCCGG | -2.18 ± 0.26 | -2.13 ± 0.4
4 | GCCAAGCAAUAUUACGCGCG | -1.87 ± 0.13 | -0.932 ± 0.14
5 | GCCAAGCAAUAUUACGCGGC | -3.04 ± 0.22 | -3.03 ± 0.43
6 | GCCAAGCAAUAUUACGCGUU | -0.424 ± 0.059 | 0.358 ± 0.079
7 | GCCAAGCAAUAUUACGGAAG | -3.55 ± 0.34 | -2.57 ± 0.33
8 | GCCAAGCAAUAUUACGGAAU | -1.8 ± 0.15 | -0.618 ± 0.15
9 | GCCAAGCAAUAUUACGGACG | -1.6 ± 0.14 | 0.0859 ± 0.18
10 | GCCAAGCAAUAUUACGGCGC | -1.36 ± 0.11 | -0.697 ± 0.15
11 | GCCAAGCAAUAUUACGGGAU | -0.936 ± 0.075 | -0.693 ± 0.099
12 | GCCAAGCAAUAUUACGGGGC | -3.69 ± 0.22 | -2.85 ± 0.27
13 | GCCAAGCAAUAUUACGGGUA | -0.958 ± 0.052 | -0.102 ± 0.062
14 | GCCAAGCAAUAUUACGGUAC | -2.01 ± 0.13 | -0.941 ± 0.13
15 | GCCAAGCAAUAUUACGGUAG | -3.67 ± 0.22 | -2.82 ± 0.18
16 | GCCAAGCAAUAUUACGUACU | -1.15 ± 0.098 | -0.739 ± 0.12
17 | GCCAAGCAAUAUUACGUCCC | -0.579 ± 0.15 | -0.607 ± 0.3
18 | GCCAAGCAAUAUUACGUCCG | -2.19 ± 0.33 | -1.6 ± 0.32
19 | GCCAAGCAAUAUUACGUCCU | -2.11 ± 0.11 | -0.408 ± 0.12
20 | GCCAAGCAAUAUUACGUGAA | -0.726 ± 0.068 | 0.0387 ± 0.09
21 | GCCAAGCAAUAUUACGUGGG | -2.97 ± 0.1 | -3.25 ± 0.13
22 | GCCAAGCAAUAUUACGUGUU | -0.889 ± 0.049 | -0.309 ± 0.06
23 | GCCCAGCAAUAUUACGAGCC | -3.1 ± 0.24 | -0.756 ± 0.15
24 | GCCCAGCAAUAUUACGAUAA | -2.26 ± 0.11 | -1.57 ± 0.13
25 | GCCCAGCAAUAUUACGCAAC | -2.19 ± 0.091 | -0.000822 ± 0.095

Row | Sequence | self-splicing fitness (ln) (30 °C) | self-splicing fitness (ln) (37 °C)
26 | GCCCAGCAAUAUUACGCAUG | -3.92 ± 0.33 | -2.24 ± 0.38
27 | GCCCAGCAAUAUUACGCUAC | -3.18 ± 0.21 | -2.72 ± 0.29
28 | GCCCAGCAAUAUUACGCUAG | -3.11 ± 0.18 | -2.34 ± 0.17
29 | GCCCAGCAAUAUUACGCUCC | -0.416 ± 0.11 | -0.675 ± 0.12
30 | GCCCAGCAAUAUUACGGACU | -2.51 ± 0.16 | -0.873 ± 0.21
31 | GCCCAGCAAUAUUACGGCAA | -2.55 ± 0.19 | -0.273 ± 0.11
32 | GCCCAGCAAUAUUACGGCCC | -1.09 ± 0.18 | -0.738 ± 0.32
33 | GCCCAGCAAUAUUACGGCGA | -0.6 ± 0.082 | -0.337 ± 0.1
34 | GCCCAGCAAUAUUACGGCUG | -4.14 ± 0.2 | -2.22 ± 0.15
35 | GCCCAGCAAUAUUACGGGGA | -0.813 ± 0.082 | -0.181 ± 0.099
36 | GCCCAGCAAUAUUACGUAAG | -1.15 ± 0.072 | -0.871 ± 0.1
37 | GCCCAGCAAUAUUACGUACU | -0.0223 ± 0.1 | -0.765 ± 0.15
38 | GCCCAGCAAUAUUACGUAGC | -0.413 ± 0.07 | -0.216 ± 0.079
39 | GCCCAGCAAUAUUACGUCGU | -0.113 ± 0.066 | 0.0609 ± 0.072
40 | GCCCAGCAAUAUUACGUGGC | -3.51 ± 0.22 | -1.39 ± 0.19
41 | GCCCAGCAAUAUUACGUGGU | -4 ± 0.18 | -1.9 ± 0.14
42 | GCCCAGCAAUAUUACGUUAC | -2.2 ± 0.083 | -0.962 ± 0.087
43 | GCCGAGCAAUAUUACGAAAC | -2.15 ± 0.22 | -1.13 ± 0.17
44 | GCCGAGCAAUAUUACGAGCU | -2.84 ± 0.26 | -3.15 ± 0.33
45 | GCCGAGCAAUAUUACGAUAU | -2.51 ± 0.12 | -1.46 ± 0.11
46 | GCCGAGCAAUAUUACGAUGC | -0.994 ± 0.088 | -0.352 ± 0.096
47 | GCCGAGCAAUAUUACGCAGG | -3.43 ± 0.25 | -4.04 ± 0.42
48 | GCCGAGCAAUAUUACGCCAC | -2.11 ± 0.34 | 
49 | GCCGAGCAAUAUUACGCCCC | -1.58 ± 0.37 | 
50 | GCCGAGCAAUAUUACGCGCG | -2.53 ± 0.25 | 

Row | Sequence | self-splicing fitness (ln) (30 °C) | self-splicing fitness (ln) (37 °C)
51 | GCCGAGCAAUAUUACGCUCG | -2.94 ± 0.27 | -2.02 ± 0.26
52 | GCCGAGCAAUAUUACGCUUA | -1.21 ± 0.072 | -0.233 ± 0.089
53 | GCCGAGCAAUAUUACGGAAU | -1.1 ± 0.09 | -0.698 ± 0.11
54 | GCCGAGCAAUAUUACGGAGU | -2.42 ± 0.18 | -1.56 ± 0.12
55 | GCCGAGCAAUAUUACGGAUC | -0.703 ± 0.074 | -0.376 ± 0.11
56 | GCCGAGCAAUAUUACGGUCG | -3.63 ± 0.21 | 
57 | GCCGAGCAAUAUUACGGUCU | -2.23 ± 0.13 | -2.26 ± 0.24
58 | GCCGAGCAAUAUUACGGUUA | -0.775 ± 0.071 | -0.0707 ± 0.07
59 | GCCGAGCAAUAUUACGGUUU | -2.38 ± 0.098 | -0.815 ± 0.095
60 | GCCGAGCAAUAUUACGUAAA | -2.41 ± 0.14 | -1.36 ± 0.17
61 | GCCGAGCAAUAUUACGUACU | -2.15 ± 0.17 | -1.23 ± 0.18
62 | GCCGAGCAAUAUUACGUCAA |  | -2.36 ± 0.33
63 | GCCGAGCAAUAUUACGUCAC |  | -1.57 ± 0.24
64 | GCCGAGCAAUAUUACGUCCU | -2.96 ± 0.14 | -0.795 ± 0.13
65 | GCCUAGCAAUAUUACGAAAG | -4.21 ± 0.24 | -1.07 ± 0.18
66 | GCCUAGCAAUAUUACGAAGU | -0.618 ± 0.1 | -0.808 ± 0.12
67 | GCCUAGCAAUAUUACGAGAU | -1.88 ± 0.12 | -0.45 ± 0.11
68 | GCCUAGCAAUAUUACGAGCG | -1.38 ± 0.1 | 0.0723 ± 0.13
69 | GCCUAGCAAUAUUACGAGGA | -0.444 ± 0.06 | -0.065 ± 0.067
70 | GCCUAGCAAUAUUACGAGUA | -1.7 ± 0.093 | -1.88 ± 0.085
71 | GCCUAGCAAUAUUACGAGUU | -1.58 ± 0.061 | -0.309 ± 0.078
72 | GCCUAGCAAUAUUACGAUGC | -1.01 ± 0.081 | 0.0478 ± 0.13
73 | GCCUAGCAAUAUUACGAUUG | -2.49 ± 0.23 | -2.32 ± 0.26
74 | GCCUAGCAAUAUUACGCACC | -0.962 ± 0.26 | -0.41 ± 0.21
75 | GCCUAGCAAUAUUACGCAGA | -3.96 ± 0.33 | -2.06 ± 0.23

Row | Sequence | self-splicing fitness (ln) (30 °C) | self-splicing fitness (ln) (37 °C)
76 | GCCUAGCAAUAUUACGCAUA | -0.13 ± 0.18 | -0.428 ± 0.15
77 | GCCUAGCAAUAUUACGCCCC | -0.575 ± 0.27 | 0.517 ± 0.49
78 | GCCUAGCAAUAUUACGCGGU | -4.03 ± 0.28 | -3 ± 0.26
79 | GCCUAGCAAUAUUACGCGUC | -1.92 ± 0.15 | -0.202 ± 0.12
80 | GCCUAGCAAUAUUACGGAUU | -0.548 ± 0.085 | 0.334 ± 0.091
81 | GCCUAGCAAUAUUACGGCUC | -1.99 ± 0.15 | -0.272 ± 0.17
82 | GCCUAGCAAUAUUACGGUCC | -3.85 ± 0.33 | -1.66 ± 0.24
83 | GCCUAGCAAUAUUACGUAAC | -0.911 ± 0.17 | -0.248 ± 0.2
84 | GCCUAGCAAUAUUACGUAGA | -1.73 ± 0.16 | 0.22 ± 0.13
85 | GCCUAGCAAUAUUACGUAUC | -1.26 ± 0.076 | -0.501 ± 0.094
86 | GCCUAGCAAUAUUACGUCCG | -3 ± 0.42 | -2.03 ± 0.26
87 | GCCUAGCAAUAUUACGUCUU | -1.54 ± 0.098 | -1.68 ± 0.11
88 | GCCUAGCAAUAUUACGUGAC | -1.12 ± 0.17 | 0.101 ± 0.17
89 | GCCUAGCAAUAUUACGUUAC | -2.72 ± 0.2 | -1.49 ± 0.18
90 | GCCUAGCAAUAUUACGUUAU | -1.52 ± 0.12 | -0.39 ± 0.14
91 | GCGAAGCAAUAUUACGAAAC | -1.86 ± 0.35 | -0.819 ± 0.44
92 | GCGAAGCAAUAUUACGAAGG | -0.597 ± 0.23 | -0.295 ± 0.3
93 | GCGAAGCAAUAUUACGAAUG | -1.95 ± 0.15 | -0.756 ± 0.17
94 | GCGAAGCAAUAUUACGAUGG | -2.12 ± 0.13 | -0.641 ± 0.14
95 | GCGAAGCAAUAUUACGAUUC | -1.46 ± 0.097 | -0.598 ± 0.13
96 | GCGAAGCAAUAUUACGCCCG | -2.36 ± 0.31 | -1.68 ± 0.48
97 | GCGAAGCAAUAUUACGCCGA |  | -1.78 ± 0.35
